Laboratory results: PMC6499816 (2019)

How the values were obtained:
Assay in all cases: BLI (biotin peptide on tip)
[1] = biological target: T1, P62 (Homo sapiens (Human), UniProt Q13501)
T1 chain: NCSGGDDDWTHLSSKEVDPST

[2] = biological target: T2, FYCO1 (Homo sapiens (Human), UniProt Q9BQS8)
T2 chain: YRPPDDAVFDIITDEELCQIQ

[3] = biological target: T3, ATG13 (Homo sapiens (Human), UniProt O75143)
T3 chain: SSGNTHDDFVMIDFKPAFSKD

B1: LC3C (protein)
chain: MPPPQKIPSVRPFKQRKSLAIRQEEVAGIRAKFPNKIPVVVERYPRETFLPPLDKTKFLVPQELTMTQFLSIIRSRMVLRATEAFYLLVNNKSLVSMSATMAEIYRDYKDEDGFVYMTYASQETFG
**Q.** B1 was tested. Which Kd [1] did it give?
**A.** The Kd was 2700 nM.

**Q.** And the Kd [2]?
**A.** Its Kd is 3000 nM.

**Q.** What about the Kd [3] of the same binder?
**A.** The Kd was 480 nM.
